Legend:
[1] = EV-203 immunogenicity: antitherapeutic antibodies (ATAs) against enfortumab vedotin; type: in vivo, human; details: 38 participants tested
Description: In the PK cohort (i.e., PK analysis set), intensive PK sampling was performed wherein blood samples for analysis of ADC, total antibody (TAb), and free (unconjugated) MMAE were collected at prespecified time points. […] Blood samples for antitherapeutic antibodies (ATAs) were collected predose on Day 1 of cycles 1 to 4, 6, 8, 10, and within 30–37 days after the last study dose. Validated assays were used to measure concentrations of ADC, TAb, and free MMAE in serum or plasma and to assess ATA levels.
Secondary endpoints were confirmed ORR by investigator assessment; DOR, disease control rate (DCR), and progression‐free survival (PFS) by IRC and investigator assessments; OS; incidence of ATAs to ADC; and safety/tolerability. PFS was defined as the time from the start of the study treatment to the first documentation of objective tumor progression (i.e., progressive disease per RECIST version 1.1) by IRC or investigator assessment (whichever was specified) or to death due to any cause, whichever came first. OS was defined as the time from the start of study treatment to the date of death due to any cause. […] Data for treatment‐related AEs (TRAEs) were evaluated by the investigator.

[2] = EV-203 safety/tolerability: adverse events; type: in vivo, human; details: for Treatment-related adverse event: Any: 1.25 mg/kg; for Treatment-related adverse event: Any / Treatment-emergent adverse event: Alopecia / Treatment-emergent adverse event: Anemia / Treatment-emergent adverse event: Any / Treatment-emergent adverse event: Aspartate aminotransferase increased / Treatment-emergent adverse event: Constipation / Treatment-emergent adverse event: Decreased appetite / Treatment-emergent adverse event: Diarrhea / Treatment-emergent adverse event: Hyperglycemia / Treatment-emergent adverse event: Hypokalemia / Treatment-emergent adverse event: Hyponatremia / Treatment-emergent adverse event: Hypophosphatemia / Treatment-emergent adverse event: Nausea / Treatment-emergent adverse event: Neutrophil count decreased / Treatment-emergent adverse event: Pneumonia / Treatment-emergent adverse event: Pruritus / Treatment-emergent adverse event: Pyrexia / Treatment-emergent adverse event: Rash / Treatment-emergent adverse event: Rash maculo-papular / Treatment-emergent adverse event: Vomiting / Treatment-emergent adverse event: White blood cell count decreased / Treatment-related adverse event of special interest: Corneal disorder/blurred vision / Treatment-related adverse event of special interest: Dry eye / Treatment-related adverse event of special interest: Hyperglycemia (composite) / Treatment-related adverse event of special interest: Infusion-related reaction / Treatment-related adverse event of special interest: Peripheral neuropathy (composite) / Treatment-related adverse event of special interest: Skin reaction (composite) / Treatment-related adverse event: Alopecia / Treatment-related adverse event: Anemia / Treatment-related adverse event: Aspartate aminotransferase increased / Treatment-related adverse event: Constipation / Treatment-related adverse event: Decreased appetite / Treatment-related adverse event: Diarrhea / Treatment-related adverse event: Hyperglycemia (preferred term) / Treatment-related adverse event: Hypokalemia / Treatment-related adverse event: Hyponatremia / Treatment-related adverse event: Hypophosphatemia / Treatment-related adverse event: Nausea / Treatment-related adverse event: Neutrophil count decreased / Treatment-related adverse event: Pruritus / Treatment-related adverse event: Rash / Treatment-related adverse event: Rash maculopapular / Treatment-related adverse event: White blood cell count decreased: N = 40
From the text: Safety assessments included physical and ophthalmologic examinations, clinical laboratory tests, 12‐lead electrocardiography, and ECOG PS.
PFS was defined as the time from the start of the study treatment to the first documentation of objective tumor progression (i.e., progressive disease per RECIST version 1.1) by IRC or investigator assessment (whichever was specified) or to death due to any cause, whichever came first. OS was defined as the time from the start of study treatment to the date of death due to any cause. […] AEs of special interest were medical concepts of composite terms based on search criteria (standard Medical Dictionary for Regulatory Activities query or sponsor‐specific query/customized Medical Dictionary for Regulatory Activities query). For example, skin reactions included categories of rash and severe cutaneous adverse reactions (which included specific events such as drug eruption, eczema, dermatitis, mouth ulceration, stomatitis, etc.). Data for treatment‐related AEs (TRAEs) were evaluated by the investigator.
All patients who received any amount of study drug were included in the primary analyses of efficacy endpoints and safety analyses.

[3] = tested on: patients with locally advanced or mUC previously treated with platinum-based chemotherapy and PD-1/L1 inhibitors; details: cited from earlier work
[4] = tested on: patients with previously treated locally advanced or mUC; details: EV-301; cited from earlier work

enfortumab vedotin: fully human monoclonal ADC directed to Nectin-4, delivering intracellular monomethyl auristatin E (MMAE) to tumor cells
Incidence of positive ATAs postbaseline [1]: 0% | Treatment-related skin reactions grade 3, patients ([2]; 13 patients): 32.5% | Treatment-related peripheral neuropathy, patients ([2]; 15 patients, all events grade 1 or 2): 37.5% | Serious TRAEs, patients ([2]; 16 of 40 patients): 40.0% | Dose interruption due to TRAEs, patients ([2]; 22 of 40 patients): 55.0% | Dose reduction due to TRAEs, patients ([2]; 25 of 40 patients): 62.5% | Grade 3 or higher TRAEs, patients ([2]; 29 of 40 patients): 72.5% | Treatment-related adverse event: Any ([2]; any grade): 40 (100) n (%) | Treatment-related hyperglycemia, patients ([2]; any grade, 22 patients): 55.0% | Treatment-related skin reactions, patients ([2]; any grade, 31 patients): 77.5% | Treatment-emergent adverse event: Alopecia ([2]; any grade): 12 (30.0) n (%) | Treatment-emergent adverse event: Anemia ([2]; any grade): 28 (70.0) n (%) | Treatment-emergent adverse event: Any ([2]; any grade): 40 (100) n (%) | Treatment-emergent adverse event: Aspartate aminotransferase increased ([2]; any grade): 26 (65.0) n (%) | Treatment-emergent adverse event: Constipation ([2]; any grade): 19 (47.5) n (%) | Treatment-emergent adverse event: Decreased appetite ([2]; any grade): 26 (65.0) n (%) | Treatment-emergent adverse event: Diarrhea ([2]; any grade): 19 (47.5) n (%) | Treatment-emergent adverse event: Hyperglycemia ([2]; any grade): 20 (50.0) n (%) | Treatment-emergent adverse event: Hypokalemia ([2]; any grade): 15 (37.5) n (%) | Treatment-emergent adverse event: Hyponatremia ([2]; any grade): 13 (32.5) n (%) | Treatment-emergent adverse event: Hypophosphatemia ([2]; any grade): 7 (17.5) n (%) | Treatment-emergent adverse event: Nausea ([2]; any grade): 20 (50.0) n (%) | Treatment-emergent adverse event: Neutrophil count decreased ([2]; any grade): 19 (47.5) n (%) | Treatment-emergent adverse event: Pneumonia ([2]; any grade): 5 (12.5) n (%) | Treatment-emergent adverse event: Pruritus ([2]; any grade): 14 (35.0) n (%) | Treatment-emergent adverse event: Pyrexia ([2]; any grade): 15 (37.5) n (%) | Treatment-emergent adverse event: Rash ([2]; any grade): 17 (42.5) n (%) | Treatment-emergent adverse event: Rash maculo-papular ([2]; any grade): 6 (15.0) n (%) | Treatment-emergent adverse event: Vomiting ([2]; any grade): 12 (30.0) n (%) | Treatment-emergent adverse event: White blood cell count decreased ([2]; any grade): 16 (40.0) n (%) | Treatment-related adverse event of special interest: Corneal disorder/blurred vision ([2]; any grade): 2 (5.0) n (%) | Treatment-related adverse event of special interest: Dry eye ([2]; any grade): 3 (7.5) n (%) | Treatment-related adverse event of special interest: Hyperglycemia (composite) ([2]; any grade): 22 (55.0) n (%) | Treatment-related adverse event of special interest: Infusion-related reaction ([2]; any grade): 2 (5.0) n (%) | Treatment-related adverse event of special interest: Peripheral neuropathy (composite) ([2]; any grade): 15 (37.5) n (%) | Treatment-related adverse event of special interest: Skin reaction (composite) ([2]; any grade): 31 (77.5) n (%) | Treatment-related adverse event: Alopecia ([2]; any grade): 12 (30.0) n (%) | Treatment-related adverse event: Anemia ([2]; any grade): 27 (67.5) n (%) | Treatment-related adverse event: Aspartate aminotransferase increased ([2]; any grade): 25 (62.5) n (%) | Treatment-related adverse event: Constipation ([2]; any grade): 16 (40.0) n (%) | Treatment-related adverse event: Decreased appetite ([2]; any grade): 25 (62.5) n (%) | Treatment-related adverse event: Diarrhea ([2]; any grade): 19 (47.5) n (%) | Treatment-related adverse event: Hyperglycemia (preferred term) ([2]; any grade): 19 (47.5) n (%) | Treatment-related adverse event: Hypokalemia ([2]; any grade): 14 (35.0) n (%) | Treatment-related adverse event: Hyponatremia ([2]; any grade): 12 (30.0) n (%) | Treatment-related adverse event: Hypophosphatemia ([2]; any grade): 7 (17.5) n (%) | Treatment-related adverse event: Nausea ([2]; any grade): 20 (50.0) n (%) | Treatment-related adverse event: Neutrophil count decreased ([2]; any grade): 19 (47.5) n (%) | Treatment-related adverse event: Pruritus ([2]; any grade): 14 (35.0) n (%) | Treatment-related adverse event: Rash ([2]; any grade): 17 (42.5) n (%) | Treatment-related adverse event: Rash maculopapular ([2]; any grade): 6 (15.0) n (%) | Treatment-related adverse event: White blood cell count decreased ([2]; any grade): 16 (40.0) n (%) | Treatment-related hyperglycemia grade 3, patients ([2]; four patients): 10.0% | Treatment-related adverse event: Any ([2]; grade ≥ 3): 29 (72.5) n (%) | Treatment-emergent adverse event: Alopecia ([2]; grade ≥ 3): 0 n (%) | Treatment-emergent adverse event: Anemia ([2]; grade ≥ 3): 6 (15.0) n (%) | Treatment-emergent adverse event: Any ([2]; grade ≥ 3): 30 (75.0) n (%) | Treatment-emergent adverse event: Aspartate aminotransferase increased ([2]; grade ≥ 3): 1 (2.5) n (%) | Treatment-emergent adverse event: Constipation ([2]; grade ≥ 3): 0 n (%) | Treatment-emergent adverse event: Decreased appetite ([2]; grade ≥ 3): 1 (2.5) n (%) | Treatment-emergent adverse event: Diarrhea ([2]; grade ≥ 3): 2 (5.0) n (%) | Treatment-emergent adverse event: Hyperglycemia ([2]; grade ≥ 3): 3 (7.5) n (%) | Treatment-emergent adverse event: Hypokalemia ([2]; grade ≥ 3): 2 (5.0) n (%) | Treatment-emergent adverse event: Hyponatremia ([2]; grade ≥ 3): 5 (12.5) n (%) | Treatment-emergent adverse event: Hypophosphatemia ([2]; grade ≥ 3): 5 (12.5) n (%) | Treatment-emergent adverse event: Nausea ([2]; grade ≥ 3): 0 n (%) | Treatment-emergent adverse event: Neutrophil count decreased ([2]; grade ≥ 3): 8 (20.0) n (%) | Treatment-emergent adverse event: Pneumonia ([2]; grade ≥ 3): 5 (12.5) n (%) | Treatment-emergent adverse event: Pruritus ([2]; grade ≥ 3): 2 (5.0) n (%) | Treatment-emergent adverse event: Pyrexia ([2]; grade ≥ 3): 0 n (%) | Treatment-emergent adverse event: Rash ([2]; grade ≥ 3): 5 (12.5) n (%) | Treatment-emergent adverse event: Rash maculo-papular ([2]; grade ≥ 3): 4 (10.0) n (%) | Treatment-emergent adverse event: Vomiting ([2]; grade ≥ 3): 0 n (%) | Treatment-emergent adverse event: White blood cell count decreased ([2]; grade ≥ 3): 5 (12.5) n (%) | Treatment-related adverse event of special interest: Corneal disorder/blurred vision ([2]; grade ≥ 3): 0 n (%) | Treatment-related adverse event of special interest: Dry eye ([2]; grade ≥ 3): 0 n (%) | Treatment-related adverse event of special interest: Hyperglycemia (composite) ([2]; grade ≥ 3): 5 (12.5) n (%) | Treatment-related adverse event of special interest: Infusion-related reaction ([2]; grade ≥ 3): 0 n (%) | Treatment-related adverse event of special interest: Peripheral neuropathy (composite) ([2]; grade ≥ 3): 0 n (%) | Treatment-related adverse event of special interest: Skin reaction (composite) ([2]; grade ≥ 3): 13 (32.5) n (%) | Treatment-related adverse event: Alopecia ([2]; grade ≥ 3): 0 n (%) | Treatment-related adverse event: Anemia ([2]; grade ≥ 3): 6 (15.0) n (%) | Treatment-related adverse event: Aspartate aminotransferase increased ([2]; grade ≥ 3): 1 (2.5) n (%) | Treatment-related adverse event: Constipation ([2]; grade ≥ 3): 0 n (%) | Treatment-related adverse event: Decreased appetite ([2]; grade ≥ 3): 1 (2.5) n (%) | Treatment-related adverse event: Diarrhea ([2]; grade ≥ 3): 2 (5.0) n (%) | Treatment-related adverse event: Hyperglycemia (preferred term) ([2]; grade ≥ 3): 3 (7.5) n (%) | Treatment-related adverse event: Hypokalemia ([2]; grade ≥ 3): 2 (5.0) n (%) | Treatment-related adverse event: Hyponatremia ([2]; grade ≥ 3): 5 (12.5) n (%) | Treatment-related adverse event: Hypophosphatemia ([2]; grade ≥ 3): 4 (10.0) n (%) | Treatment-related adverse event: Nausea ([2]; grade ≥ 3): 0 n (%) | Treatment-related adverse event: Neutrophil count decreased ([2]; grade ≥ 3): 8 (20.0) n (%) | Treatment-related adverse event: Pruritus ([2]; grade ≥ 3): 2 (5.0) n (%) | Treatment-related adverse event: Rash ([2]; grade ≥ 3): 5 (12.5) n (%) | Treatment-related adverse event: Rash maculopapular ([2]; grade ≥ 3): 4 (10.0) n (%) | Treatment-related adverse event: White blood cell count decreased ([2]; grade ≥ 3): 5 (12.5) n (%) | Dose interruption due to fatigue, patients ([2]; most common TRAE leading to dose interruption): 10.0% | Dose reduction due to rash, patients ([2]; most common TRAE leading to dose reduction): 22.5% | Hyperglycemia leading to treatment discontinuation, patients ([2]; one patient): 2.5% | Treatment-related hyperglycemia grade 4, patients ([2]; one patient): 2.5% | Death due to a TRAE, patients ([2]; one patient, acute coronary syndrome): 2.5% | Treatment discontinuation due to TRAEs, patients ([2]; two patients: acute coronary syndrome, hyperglycemia and rash): 5.0% | Deaths following malignant neoplasm progression, patients ([2]; two patients, not considered treatment-related): 5.0% | Median duration of response (DOR) ([3]; EV-201): 7.6 months | Objective response rate (ORR) ([3]; EV-201 cohort 1 (n = 125)): 44% | Median OS [4]: 12.88 months | Median PFS [4]: 5.6 months | Probability of OS at 6 months [4]: approximately 80%

Source: article PMC11555717 (Cancer Medicine, 2024)
